Laboratory results reported in patent US20240294636A1 (YALE UNIVERSITY, published 2024).

Molecular target: T1, mouse Unc5B (mouse, UniProt Q8K1S3 27-945)
T1 construct: whole, on cells; Endogenous protein; also called Uncoordinated 5B
Assay: immunoprecipitation from mouse brain endothelial Bend.3 cells with the named antibody, western blot of the precipitate for Unc5B and Claudin5

T1 sequence (Q8K1S3 27-945): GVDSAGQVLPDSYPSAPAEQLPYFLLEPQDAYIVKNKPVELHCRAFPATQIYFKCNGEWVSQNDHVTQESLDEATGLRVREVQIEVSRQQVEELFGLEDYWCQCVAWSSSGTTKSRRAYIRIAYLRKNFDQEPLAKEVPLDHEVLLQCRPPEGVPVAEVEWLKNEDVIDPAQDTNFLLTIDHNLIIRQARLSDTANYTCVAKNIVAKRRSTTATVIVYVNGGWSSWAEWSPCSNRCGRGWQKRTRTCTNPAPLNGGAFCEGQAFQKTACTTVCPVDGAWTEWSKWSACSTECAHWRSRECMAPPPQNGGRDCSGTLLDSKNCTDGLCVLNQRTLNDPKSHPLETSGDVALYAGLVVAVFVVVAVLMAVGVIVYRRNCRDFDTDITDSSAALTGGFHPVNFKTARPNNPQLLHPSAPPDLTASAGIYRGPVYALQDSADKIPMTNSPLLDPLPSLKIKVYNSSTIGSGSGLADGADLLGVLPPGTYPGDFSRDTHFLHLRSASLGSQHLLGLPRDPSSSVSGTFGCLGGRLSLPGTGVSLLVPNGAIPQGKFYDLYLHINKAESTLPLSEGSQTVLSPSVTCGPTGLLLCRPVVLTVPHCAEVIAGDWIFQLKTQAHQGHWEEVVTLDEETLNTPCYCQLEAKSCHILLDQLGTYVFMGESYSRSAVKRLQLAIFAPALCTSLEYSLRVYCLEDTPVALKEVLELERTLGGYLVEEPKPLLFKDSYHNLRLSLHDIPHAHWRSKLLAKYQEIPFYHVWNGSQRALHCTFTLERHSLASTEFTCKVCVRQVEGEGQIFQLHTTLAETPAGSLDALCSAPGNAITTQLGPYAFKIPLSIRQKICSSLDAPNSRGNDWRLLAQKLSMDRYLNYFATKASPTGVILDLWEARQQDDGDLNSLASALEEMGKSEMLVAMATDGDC

- binding result: binds
B1: anti-Unc5B antibody 1103 (antibody, V domains shown)
VH: EVQLVESGGGLVQPGGSLRLSCAASGFNISYYSIHWVRQAPGKGLEWVASIYSSSGYTSYADSVKGRFTISADTSKNTAYLQMNSLRAEDTAVYYCARGYGLDYWGQGTLVTVSS
VL: DIQMTQSPSSLSASVGDRVTITCRASQSVSSAVAWYQQKPGKAPKLLIYSASSLYSGVPSRFSGSRSGTDFTLTISSLQPEDFATYYCQQHYSYPITFGQGTKVEIKR
notes: also called anti-Unc5B-3
